Changes are numbered by the printed parent chain. In names and notes the source's numbering stands. Several values for one entry are separate records, joined by “and”; a condition that tells them apart may be missing. Equal values may be shown once.
B1: KB001 mouse Fab VL F33N (Fab, V domains shown)
VH: EVQLKQSGPGLVAPSQSLSITCTVSGFSLSIYSVHWVRQPPGKGLEWLGMIWGGGSSDYNSALKSRLSISKDNSKSQVFLKMNSLQTDDTAMYYCARNGNFYAMDYWGQGTSVTVSS
VL: QIVLTQSPAIMSASLGERVTMTCTASSSVSSSNLHWYQQKPGSSPQLWIYSTSNLASGVPARFSGSGSGTSYSLTISSMEAEDAATYYCHQYHHSPYIYTFGGGTKLEIK
B2: KB001 mouse Fab VL L34M (Fab, V domains shown)
VH: B1 VH
VL: B1 VL with N33F, L34M
B3: KB001 mouse Fab VL N54K (Fab, V domains shown)
VH: B1 VH
VL: B1 VL with N33F, N54K
B4: KB001 mouse Fab VL L55K (Fab, V domains shown)
VH: B1 VH
VL: B1 VL with N33F, L55K
B5: KB001 mouse Fab VL N54F (Fab, V domains shown)
VH: B1 VH
VL: B1 VL with N33F, N54F
B6: KB001 mouse Fab VL L34V (Fab, V domains shown)
VH: B1 VH
VL: B1 VL with N33F, L34V
B7: KB001 mouse Fab VH S30N (Fab, V domains shown)
VH: B1 VH with S30N
VL: B1 VL with N33F
B8: KB001 mouse Fab VH S30E (Fab, V domains shown)
VH: B1 VH with S30E
VL: B1 VL with N33F
B9: KB001 mouse Fab VL F33H (Fab, V domains shown)
VH: B1 VH
VL: B1 VL with N33H
B10: KB001 mouse Fab VL N54L (Fab, V domains shown)
VH: B1 VH
VL: B1 VL with N33F, N54L
B11: KB001 mouse Fab VL L55T (Fab, V domains shown)
VH: B1 VH
VL: B1 VL with N33F, L55T
B12: KB001 mouse Fab VL N54E (Fab, V domains shown)
VH: B1 VH
VL: B1 VL with N33F, N54E
B13: KB001 mouse Fab VL S53D (Fab, V domains shown)
VH: B1 VH
VL: B1 VL with N33F, S53D
B14: KB001 mouse Fab VH I31T (Fab, V domains shown)
VH: B1 VH with I31T
VL: B1 VL with N33F
B15: KB001 mouse Fab VL L55S (Fab, V domains shown)
VH: B1 VH
VL: B1 VL with N33F, L55S
B16: KB001 mouse Fab VL T52M (Fab, V domains shown)
VH: B1 VH
VL: B1 VL with N33F, T52M
B17: KB001 mouse Fab VL L55H (Fab, V domains shown)
VH: B1 VH
VL: B1 VL with N33F, L55H
B18: KB001 mouse Fab VL S53V (Fab, V domains shown)
VH: B1 VH
VL: B1 VL with N33F, S53V
B19: KB001 mouse Fab VL S53R (Fab, V domains shown)
VH: B1 VH
VL: B1 VL with N33F, S53R
B20: KB001 mouse Fab VL S53A (Fab, V domains shown)
VH: B1 VH
VL: B1 VL with N33F, S53A
B21: KB001 mouse Fab VL S53C (Fab, V domains shown)
VH: B1 VH
VL: B1 VL with N33F, S53C
B22: KB001 mouse Fab VL L55Q (Fab, V domains shown)
VH: B1 VH
VL: B1 VL with N33F, L55Q
B23: KB001 mouse Fab VL T52R (Fab, V domains shown)
VH: B1 VH
VL: B1 VL with N33F, T52R
B24: KB001 mouse Fab VL N54I (Fab, V domains shown)
VH: B1 VH
VL: B1 VL with N33F, N54I
B25: KB001 mouse Fab VL S53L (Fab, V domains shown)
VH: B1 VH
VL: B1 VL with N33F, S53L
B26: KB001 mouse Fab VH S30Y (Fab, V domains shown)
VH: B1 VH with S30Y
VL: B1 VL with N33F
B27: KB001 mouse Fab VH S28P (Fab, V domains shown)
VH: B1 VH with S28P
VL: B1 VL with N33F
B28: KB001 mouse Fab VL T52K (Fab, V domains shown)
VH: B1 VH
VL: B1 VL with N33F, T52K
B29: KB001 mouse Fab VL S53E (Fab, V domains shown)
VH: B1 VH
VL: B1 VL with N33F, S53E
B30: KB001 mouse Fab VH S61Q (Fab, V domains shown)
VH: B1 VH with S61Q
VL: B1 VL with N33F
B31: KB001 mouse Fab VH S30A (Fab, V domains shown)
VH: B1 VH with S30A
VL: B1 VL with N33F
B32: KB001 mouse Fab VL S53W (Fab, V domains shown)
VH: B1 VH
VL: B1 VL with N33F, S53W
B33: KB001 mouse Fab VL N54D (Fab, V domains shown)
VH: B1 VH
VL: B1 VL with N33F, N54D
B34: KB001 mouse Fab VL S53Y (Fab, V domains shown)
VH: B1 VH
VL: B1 VL with N33F, S53Y
B35: KB001 mouse Fab VL L55V (Fab, V domains shown)
VH: B1 VH
VL: B1 VL with N33F, L55V
B36: KB001 mouse Fab VH S28E (Fab, V domains shown)
VH: B1 VH with S28E
VL: B1 VL with N33F
B37: KB001 mouse Fab VL N54A (Fab, V domains shown)
VH: B1 VH
VL: B1 VL with N33F, N54A
B38: KB001 mouse Fab VL L34I (Fab, V domains shown)
VH: B1 VH
VL: B1 VL with N33F, L34I
B39: KB001 mouse Fab VH S61D (Fab, V domains shown)
VH: B1 VH with S61D
VL: B1 VL with N33F
B40: KB001 mouse Fab VL N54W (Fab, V domains shown)
VH: B1 VH
VL: B1 VL with N33F, N54W
B41: KB001 mouse Fab VL T52L (Fab, V domains shown)
VH: B1 VH
VL: B1 VL with N33F, T52L
B42: KB001 mouse Fab VH S30G (Fab, V domains shown)
VH: B1 VH with S30G
VL: B1 VL with N33F

biological target: HRgpA-6H (Porphyromonas gingivalis) (UniProt P28784); test: ELISA, coated HRgpA-6H
Sequence of UniProt P28784 (P28784 228-860 limits assumed): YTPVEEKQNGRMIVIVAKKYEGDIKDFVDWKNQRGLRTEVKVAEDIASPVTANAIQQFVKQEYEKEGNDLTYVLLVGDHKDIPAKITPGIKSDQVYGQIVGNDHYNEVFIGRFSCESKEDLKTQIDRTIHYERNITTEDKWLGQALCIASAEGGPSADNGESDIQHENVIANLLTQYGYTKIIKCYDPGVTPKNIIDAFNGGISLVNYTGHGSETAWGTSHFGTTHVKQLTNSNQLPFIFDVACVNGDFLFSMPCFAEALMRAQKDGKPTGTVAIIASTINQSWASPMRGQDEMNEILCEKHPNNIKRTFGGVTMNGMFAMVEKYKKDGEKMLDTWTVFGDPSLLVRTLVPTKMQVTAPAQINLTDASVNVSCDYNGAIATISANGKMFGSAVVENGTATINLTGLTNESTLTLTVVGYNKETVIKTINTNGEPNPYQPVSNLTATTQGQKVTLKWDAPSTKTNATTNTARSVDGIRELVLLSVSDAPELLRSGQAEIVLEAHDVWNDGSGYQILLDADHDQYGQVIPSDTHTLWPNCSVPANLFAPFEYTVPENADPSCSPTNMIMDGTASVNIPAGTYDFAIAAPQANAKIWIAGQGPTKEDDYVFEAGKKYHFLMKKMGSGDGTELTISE

| Binder | OD450 nm | Ratio OD(Variant)/OD(WT) |
| --- | --- | --- |
| B1 | 0.64 | 0.844 |
| B2 | 0.736 and 0.741 and 0.714 | 0.971 and 0.978 and 0.911 |
| B3 | 0.727 | 0.928 |
| B4 | 0.769 | 0.981 |
| B5 | 0.765 | 0.976 |
| B6 | 0.641 and 0.634 | 0.846 and 0.836 |
| B7 | 0.565 and 0.56 | 1.12 and 1.11 |
| B8 | 0.567 | 1.12 |
| B9 | 0.736 | 0.971 |
| B10 | 0.774 | 0.988 |
| B11 | 0.727 | 0.928 |
| B12 | 0.744 and 0.74 | 0.95 and 0.944 |
| B13 | 0.775 | 0.984 |
| B14 | 0.56 and 0.534 | 1.11 and 1.06 |
| B15 | 0.672 | 0.858 |
| B16 | 0.662 | 0.841 |
| B17 | 0.695 and 0.731 | 0.887 and 0.933 |
| B18 | 0.702 | 0.891 |
| B19 | 0.637 | 0.809 |
| B20 | 0.784 | 0.996 |
| B21 | 0.697 | 0.885 |

| Binder | OD450 nm | Ratio OD(Variant)/OD(WT) |
| --- | --- | --- |
| B22 | 0.711 and 0.692 and 0.684 | 0.907 and 0.883 and 0.873 |
| B23 | 0.724 and 0.681 and 0.685 | 0.919 and 0.865 and 0.87 |
| B24 | 0.755 and 0.772 and 0.754 | 0.964 and 0.985 and 0.962 |
| B25 | 0.639 and 0.636 | 0.811 and 0.808 |
| B26 | 0.53 and 0.488 | 1.05 and 0.967 |
| B27 | 0.545 and 0.452 and 0.514 | 1.01 and 0.837 and 0.952 |
| B28 | 0.681 | 0.865 |
| B29 | 0.766 | 0.973 |
| B30 | 0.634 | 1.28 |
| B31 | 0.534 and 0.499 and 0.494 | 1.06 and 0.989 and 0.979 |
| B32 | 0.727 | 0.923 |
| B33 | 0.725 | 0.925 |
| B34 | 0.776 and 0.781 | 0.985 and 0.992 |
| B35 | 0.706 | 0.901 |
| B36 | 0.561 and 0.551 and 0.494 | 1.04 and 1.02 and 0.915 |
| B37 | 0.776 | 0.99 |
| B38 | 0.67 | 0.884 |
| B39 |  | 1.14 and 1.11 (2×) and 0.956 |
| B40 | 0.646 | 0.825 |
| B41 | 0.769 | 0.977 |
| B42 | 0.533 and 0.515 | 1.06 and 1.02 |

From patent publication US20240400654A1
